Reference: the nanobody polyreactivity screen of Harvey et al. (2022)

Assay: yeast display, Sf9 membrane polyspecificity reagent, FACS + sequencing; frameworks hold sequencing errors
Method in brief: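 Galactose-induced (36–48 hours) yeast carrying a synthetic nanobody display library were exposed to 10% biotinylated, detergent-solubilized Sf9 membrane reagent at 4 °C for 1 hour. FACS followed streptavidin microbead enrichment, using low and high (top ~1%) gates for expression (anti-HA) and reagent binding (streptavidin). Colony PCR, MiSeq 2 × 250 sequencing and CDR-length filtering followed. Labels for polyreactivity reflect the gate of origin.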

Row | Sequence | polyreactivity (PSR sort gate)
1 | QVQLVESGGGLVHAGGSLRLSCASSGSTFVLYAMGWYRQAPGKERELVAVISWSGGSTYYADSVKGRFTISRDNAKNTVYLQLYSLKPEDTAVYYCAKRYRVSYYPYADPYGYWGQGTQVNVSS | low polyreactivity
2 | QVQHVESGGALVQAGGSLRLSCAASGSTYYIYAMGWYRHGPGKERELVARISGSGGSTYYADSVKGRFTISRDNAKNTVYLQMNSLKPEDTAVYYCAADDIYKYYQYYAFQYFRYDYWGQGTQVTVSS | low polyreactivity
3 | QVQLVESGGGLVQAGGSLRLSCAASGRIFYKYTMGWYRQAPGKERELVAAITDSDDSTYYADSVKGRFTISRDNAKITVYLQMNSLKPEDTAVYYCAASGPVTESDMDYWGQGTQVTVSS | low polyreactivity
4 | QVQLVESGGGLVQAGGSLRLSCAASGSIFGSYAMGWYRQAPGKERELVAAIRWRGGSTYYADSVKGRFTISRDNAKNTVYLQMNSLKPEDTAVYYCNAVTHYPVWVSGVGYDYWGQGTQVTVSS | high polyreactivity
5 | QVQLVESGGGLVQAGGSLRLSCAASGRIFGYYTMGWYRQAPGKERELVADSSGGNTSYADSVKGRFTISRDNAKNTVYLQMNSLKPEDTAVYYCAKDLPGAWRGDDYWGQGTQVTVSS | low polyreactivity
6 | QVQLVESGGGLVQAGGSLRLSCAASGRIFLRNAMGWSRQAPRKERELVAAISSSGGRTYYADSVKGRFTISRDNAKNTVYLQMNSLKPEDTAVYYCNARWHGSFDYWGQGTQVTVSS | low polyreactivity
7 | QVQLVESVGRLVQAGGSLRLSCAASGRIIYWNAKGWYRQAPGKERELVAGITTGGSTYYADSVKGRFTISRDNAKNTVYLQMNSLKPEDTAVYYCAARPFIRQRYGYWGKGTQVTVSS | high polyreactivity
8 | QVQLVESGGGLVQAGGSIRLSCAASGNTFVLYTMGWYRQAPGKERELVAAISGRGTNTYYADSVKGRFTISRDNAKNTVYLQMNSLKPEDTAVYYCAARYKTLVTDYEYWGQGTQVTVSS | high polyreactivity
9 | QLQLVESRGGLVQAGGSLRLSCASSGFIFKQNAMGWYRQAPGNERELVAAISVSGGSTYYADSVKGRFTISRDNAKNTVYLQMNSLKPEYSAVYYCNTRDRGDVVTGLDYWGQGTQVTVSS | low polyreactivity
10 | QVQLVESGGGLVQAGGSLRLSCAASGSTFHLYAMGWSRQAPGKERELVAVITSGDSTSYADSVKGRFTISRDNAKNTVYLQMNSLKPEDTAVYYCAADSYSGYNYWGQGTQVTVSS | low polyreactivity
11 | QVQLVESGGGLVQAGGSLRLSCAASGSTFTRYAMGWYRQAPGKERELVAAISGGGSTNYADSVKGRFTISRDNSKNTVYLQMNSLKPEDTAVYYCAARVRTTGYSQMYYWGQGTQVTVSS | low polyreactivity
12 | QVQLVESGGGLVQAGGSLRLSCAASGFTFTEYAMGWYRQAPGKERELVADITWSGGITYYADSVKGRFTISRDNAKNTVYLQMNSLKPEDTAVYYCNADYIYSYFYIRYDYWGQGTQVTVSS | low polyreactivity
13 | QVQLVESGGGLVQAGGSLRLSCAASGRIFVVNAMGWYRQAPGKERELVAAISSSSDSTYYADSVKGRFTISRDNAKNTVYLQMNSLKPEDTAVFYCAADYHYDGYWIYDYWGQGTQVTVSS | high polyreactivity
14 | QVQLVESGGGLVQAGGSLRLSCAASGYTFSTYAMGWYRQAPGKERELFAAISYSGGRTRYADSVKGRFTISRDNAKNTVYLQMNSLKPEDTAVYYCAAKSGYGYGYWGQGTQVTVSS | high polyreactivity
15 | QVQLVESGGGLVQAGGSLRLSCAASGRTFRRYAMGWYRQAPGNERELVAAISYNGGRTYYADSVKGRFTISRDNAKNTVYLQMNSLKPEDTAVYYCNARGPSWFGGRYYHWGQGTQVTVSS | high polyreactivity
16 | QVQLVESWGGLVQAGGSLRLSCAASGLIFVGNAMGWYRQAPGKERELVAAISSRGGRTYYADSVKGRFTISRDNAKNTVYLQMNSLKPEDTAVYYCAARVWRYPYYWGQGTQVTVSS | high polyreactivity
17 | QVQLVESGGGLVQAGGSLRLSCAASGSIIGSYAMGWYRQAPGKERELVAAISKSGGSTYYADSVKGRFTISRDNAKNTVYLQMNSLKPEDTAVYYCAARAYRYAYRAYDYWGQGTQVTVSS | high polyreactivity
18 | QVQLVESGGVLVQAGGSLRLSCAASGSIFGNYAMGWYRQAPGKETELVAAISYRGGSTYYADSVKGRFTISRDNAKNTVYLQMNSLKPEDTAVYYCNAGGRRRIFAHSSTGDYWGQGTQVTVSS | high polyreactivity
19 | QVQLVESGGGLVQAGGSLRLSCAASGSIFSRYTMGWYRQAPGKERELVAAISGSTTRTYYADSVKGRFTISRDNAKNTVYLQMNSLKPEDTAVYYCAATRGRGGRDDYWGQGTQVTVSS | high polyreactivity
20 | QVQLVESGGGLVQAGGSLRLSCAASGGIFTQYAMGWSRQAPWKERELVAAITRSGGTYYADSVKGRFTISRDNAKNTVYLQMNSLKPEDTAVYYCAAEWIDAYYDYDYWGQGTQVTVSS | high polyreactivity
21 | QVQLVESGGGLVQAGGSLRLSCAASGSTFEDNTMGWYRQAPGKEREFVADISNIGGDTTYADSVKGRFTISRDNAKNTVYLQMNSLKPEDTAVYYCAAVKGHSQVLSYGYWGQGTQVTVSS | low polyreactivity
22 | QVQLVESGGGLVQAGGSLRLSCAASGYTFQHYGMGWYRQAPGKERELVAAITRRGSGTYYADSVKGRFTISRDNAKNTVYLQMNRLKPEDTAVYYCAAAVGHGVDYWGQGTQVTVSS | high polyreactivity

Row | Sequence | polyreactivity (PSR sort gate)
23 | QVQLVESGGGLVQAGGSLRLTCAASGITLLYNAMGWYRQAPGKESELVAGITGRGGSTYYADSVKGRFTISRDNAKNTVYLQMNSLKPEDTAVYYCAATTDYRYVGRIVIRDEHWGQGTQVTVSS | low polyreactivity
24 | QVQLVESGGGLVQAGGSLRLSCAASGFIFEPYAMGWYRQEPGKERELVAAISNSDSTNYADSVKGLFTISRDNAKNTVYLQMNSLKAEDTAVYYCNADFSKSYDYWGQGTQVTVSS | low polyreactivity
25 | QVQLVESGGGLVQAGGSLRLSCAASGSTFNGYVMGWYRQAPGKERELVAAISRSGGSTYYADSVKGRFTISRDNAKNTVYLQMYSLKPEDTAVYYCAKGGYQHYWGQGTQVTVSS | high polyreactivity
26 | QVQLVESGRGLVHAGGSIRLSCAASGRIFGLYAIGWYRQAPGKERELVASINSRGGSTNYAVSVKGRFTISRDNAMNTVYLQMNSLKPEDTAVYYCNARIVYAYQRYYWGQGTHVTVSS | high polyreactivity
27 | QVQLVESGGGLVQAGGSLRLSCAASGLTFDYYDMGWYRQAPGKERELVASITWRGSSTYYADSVKGRFTISRDNAKNTVYLQMYSLKPEDTAVYYCAADPQSTIRDYWGQGTQVTVSS | high polyreactivity
28 | QVQLVESGGGLVQAGGSLRLSCAASGSTFYAYTMGWYRQAPGKERELVADISRSGGSTYYADSVKGRFTISRDNAKNTVYLQMNSLKPEDTAVYYCAAASSYYRGHYDYWVQGTQVTVSS | high polyreactivity
29 | QVQLVESGGDLVQAGGSLRLSCAATGYTFLRYTMGWYRQAPGKERELVAAITSGTSTYYADSVKGRFTISRDNEKNTVYLQMNSLKPEDTAVYYCDKTPTRQRYGHWGQGTQVTVSS | high polyreactivity
30 | QVQLVESGGGLVQAGGSLRLSCAASGGIFARYAMGWYRQAPGKEREFVAAISFSGASTYYADSVKGRFTISRDNAKNTVYLQMNSLKPEDTAVYYCAAYWDAEGRRYTRLDYWGQGTQVTVSS | low polyreactivity
31 | QVQLVESGGGLVQAGGSLRLSCAASGFIFAWSAMGWYRQAPGKERELVAAISYSGGSTFYADSVKGRFTISRDNAKNTVYLQMNSLKPEDTAVYYCARYYRALGTARNDYWGQGTQVTVSS | low polyreactivity
32 | QVQLVESGGGIVQAGGSLRLSCADSGSTFRDNAMGLYRQAPGKERELVAAITVIDGTTYYADSVKGRFTISRDNAKNTVYLQMNSLKPEDTAVYYCAADTIWYEYYYWGQGTQVTVSS | low polyreactivity
33 | QVQLVESGGGLVQAGGSLRLSCAASGFTFYTNAMGLSRQAPGKERELVAAISQRGASTYYADSVKGRFTISRDNAKNTFYLEMTSLKPEDTAVYYCAASSRTHGSYYYWGQGTQVTVSS | high polyreactivity
34 | QVQLVESGGGLVQAGGSLRLSCAASGSIFPDNTMGWYRQAPGKERELVAAIDGRGGTTYYADSVKGRFTISRDNAKNTVYLQMNSLKPEDTAVYYCARDIGHSARYDYWGQGTQVTVSS | low polyreactivity
35 | QVQLVESGGALVQAGGSLRLSCAASGSTIGDNAMGWYRQAPGKERELVASISWSGASTYYADSVKGRFTISRDNAKNTFYLPMKSLKPEETEVYYCAVYYSYFSHLYHLLFYYWGQGTQVTVSS | low polyreactivity
36 | QVQLVESGGGLFQAGGSLRLSCAASGIIFTSYAMGWYRQAPGKESEFVAAITRSGSRTYYADSVKGRFTISRDNAKNTVYLQMNRLKPEDTAVYYCAARTYHDSSDSYAGGYWGQGTQVTVSS | low polyreactivity
37 | QVQLVESGGGLVQAGGSLRLICAASGRIFVPYVMGWYRQAPGKERELVASISDSDTSTYYADSVKGRFTISRDNAKNTVYLQMNSVKPEDTAVYYCNVDYWGQGTQVTVSS | low polyreactivity
38 | QVQLVESGGGLVQAGGTLRLSCAASGIIIGSYAMGWYRQAPGKERELVAAITNGARTNYADSVKGRFTISRDNAKNTVYLQMNSLKPEDTAVYYCAADNYFDWYWLFFEYDYWGQGTQVTVSS | high polyreactivity
39 | QVQLVESGGGLVQAGGSLRLSCAASGRIFGTYAMGWYRQAPGKERELVAAISFRGGSTYYADTVNGRFTISRDNAKNTVYLQMNCLKPEDTAVYYCNARKRYSTDPGDYWGQGTQVTVSS | high polyreactivity
40 | QVQLVESGGGLLQAGGSLRLSCAASGSTFPSYAMGWYRQAPGKERELVAAINSGGGTNYADSVKGRFTISRDNAKNNVYLQMNSLKPEDTAVYYCAKSRYDYTKTDGGYWGQGTQVTVSS | low polyreactivity
41 | QVQLVESGGGLVQAGGSLRLSCAASGRTFQYYAMGWYRQAPGKERVLVAAITSSGGSTYYADSVKGRFTISRHNAKNTVYLQMNSLKPEDTAVYYCAAEDGLQGNYNYGYDYWGQGTQVTVSS | low polyreactivity
42 | QVQLVESGGGLVQAGGSLRLSCAASGNIFRYNARGWYRKAPGKERELVAAISSVGTTNSADSVKGRFTSSRDNAKNTFYLQMNSLKPEDTAVYYCNAAWSSYLSGGYESWGQGTQVTVSS | low polyreactivity
43 | QVQLHESGGGLVQAGGSLRLSCAASGTISYAGPMGWYRQAPGKEREFVAAIGVGSNTNYADSVKGRYTIIRDNAKNTVYLQMNSLKPEDTAVYYCAVGGYAPLGRPYWCQGTQVTVSS | low polyreactivity
